Patent publication US20180044385A1

Tests used:
[1] = biological target: 4D5 Fab scaffold possessing a human IgG1 CH1 and a Kappa light chain; test: SPR
[2] = biological target: 4D5 Fab scaffold possessing a human IgG1 CH1 and a Kappa light chain; test: equilibrium SPR
[3] = biological target: IgG2, IgG3 and IgG4; test: method not stated (data not shown)
[4] = biological target: Fab with lambda light chain (Cλ); test: ELISA; reference is the Fab with kappa light chain
[5] = biological target: 4D5 Fab scaffold possessing a human IgG1 CH1 and a Kappa light chain; test: fluorescence polarization with Alexa-Fluor labeled Protein-G, pH varied
[6] = biological target: FabHS (a human 4D5 scaffold with residues PEELRTNK replacing light chain positions 122-129); test: protein ELISA

Binder	fold higher affinity than wild-type Protein-G [1] [fold]	Kd [2] [µM]	fold decrease in affinity relative to human IgG1 [3] [fold]	EC50 ratio, Cλ Fab over CK Fab [4] [fold]	fold decrease in affinity from pH 7.5 to pH 4 [5] [fold]	fold loss of affinity between pH 5.5 and pH 4.0 [5] [fold]	IC50 [6] [µM]
Protein-G-A1 (designed binder) MKGETTTEAVDAATAEKVFKQYANDNGVDGEWTYDDATKTFTVTEKPEVIDASELTPAVTTYKLVINGRTLSGYTTTTAVDAATAEKVFKQYAYVHEVDGEWTYDDATKTFTVTEKPEVIDASELTPAVTTYKLVINGRTLSGETTTKAVDAETAEKAFKQYANDNGVDGVWTYDDATKTFTVTE	100	0.025	20 to 50	> 5000	1000	300	
Protein-G-HS C7 (designed binder) MKGETTTEAVDAATAEKVFKQYANDNGVDGEWTYDDATKTFTVTEKPEVIDASELTPAVTTYKLVINGKTLKGETTTEAVDAATAEKVFKQYANDNGVDGEWTYDDATKTFTVTEKPEVIDASELTPAVTTYKLVINGRTLSGETTTKAVDAETAEKAFKQYAYGAVVDGVWTYDDATKTFTVTE							0.1
Protein-G-HS C6 (designed binder) MKGETTTEAVDAATAEKVFKQYANDNGVDGEWTYDDATKTFTVTEKPEVIDASELTPAVTTYKLVINGKTLKGETTTEAVDAATAEKVFKQYANDNGVDGEWTYDDATKTFTVTEKPEVIDASELTPAVTTYKLVINGRTLSGETTTKAVDAETAEKAFKQYSRPHVVDGVWTYDDATKTFTVTE							0.008
